The target of experiment [1] is protease activated receptor 2 (PAR2) (human (endogenous in Caco-2)) (UniProt P55085).
Experiment [2] shares this target. This is another data set of the same source.
For experiment [3] the target is unchanged. The source holds these as a separate data set.
For experiment [4] the target is unchanged. The source holds these as a separate data set.
Experiment [5] has the same target. The source holds these as a separate data set.

Chain of UniProt P55085 (P55085 37-397): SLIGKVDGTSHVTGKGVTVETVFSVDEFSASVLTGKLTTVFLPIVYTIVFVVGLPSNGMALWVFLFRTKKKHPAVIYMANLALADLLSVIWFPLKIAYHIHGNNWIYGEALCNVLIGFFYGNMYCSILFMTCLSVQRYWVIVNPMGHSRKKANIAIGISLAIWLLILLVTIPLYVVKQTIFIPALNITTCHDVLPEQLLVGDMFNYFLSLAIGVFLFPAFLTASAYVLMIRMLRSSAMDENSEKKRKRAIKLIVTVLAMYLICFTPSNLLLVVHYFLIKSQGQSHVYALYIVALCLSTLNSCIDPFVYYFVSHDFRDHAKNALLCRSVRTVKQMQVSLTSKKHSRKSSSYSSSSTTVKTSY

Regarding “Recombinant Trichinella spiralis trypsin, C-terminal domain (rTsTryp) (from UniProt E5RYV9 1-667)”, in experiment [1], the ZO-1 mRNA (qPCR) in Caco-2 cells treated with rTsTryp, against the DMSO group; restored by AZ3451 pretreatment stood at 55.9 % decrease and the occludin mRNA (qPCR) in Caco-2 cells treated with rTsTryp, against the DMSO group; restored by AZ3451 pretreatment was 52.4 % decrease. Also, in experiment [2], the ZO-1 protein (Western blot) in the Caco-2 monolayer treated with rTsTryp, against the DMSO group; abrogated by AZ3451 pretreatment came out at 56.5 % decrease and the occludin protein (Western blot) in the Caco-2 monolayer treated with rTsTryp, against the DMSO group; abrogated by AZ3451 pretreatment worked out at 49 % decrease. This substance also showed a flux of 4 kDa FITC-dextran (FD4) through the Caco-2 monolayer, rTsTryp group against the PBS group (fold of the PBS group) in experiment [3] of 2. This substance also displayed a level of phosphorylated ERK1/2 (Western blot) in the Caco-2 monolayer after 2 h with rTsTryp, against the PBS group in experiment [4] of 210 % increase. Also, the promotion of IIL larval invasion of the Caco-2 monolayer by 12, 16 and 20 μg/ml rTsTryp, against the PBS group in experiment [5] amounted to 40.2 % promotion.

The values are drawn from publication PMC10786404.
